In patent US20170107294A1, “ANTI-CD14 ANTIBODIES AND USES THEREOF” (Nordlandssykehuset HF, priority 2014, published 2017):

Tests used:
porcine CD14 = target: T1, porcine CD14 (Sus scrofa, UniProt F6PST4); assay: CD14 binding in flow cytometry, porcine whole blood (competition with FITC-conjugated Mil2); set-up: human monocyte and porcine granulocyte populations were selected based on the forward scatter-side scatter dot plot; endogenous in cells; host or cells: granulocytes in fresh porcine whole blood (EDTA); binding sites blocked (competition with FITC-conjugated Mil2 in binding to CD14) / direct binding to porcine granulocytes: dose or concentration left out as unconfirmed; conditions: Ab; granulocytes in porcine whole blood
T1 sequence (F6PST4 21-373): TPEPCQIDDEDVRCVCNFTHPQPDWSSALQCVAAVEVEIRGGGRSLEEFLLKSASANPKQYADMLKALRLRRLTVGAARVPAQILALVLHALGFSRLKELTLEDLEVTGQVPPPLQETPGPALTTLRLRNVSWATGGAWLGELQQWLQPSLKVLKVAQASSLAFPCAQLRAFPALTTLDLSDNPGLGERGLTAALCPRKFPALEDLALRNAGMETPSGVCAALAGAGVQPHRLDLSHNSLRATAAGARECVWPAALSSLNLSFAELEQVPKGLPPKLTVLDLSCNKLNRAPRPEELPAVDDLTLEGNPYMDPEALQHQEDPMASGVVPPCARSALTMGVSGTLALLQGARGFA
Experimental: Fresh human or porcine whole blood was drawn into tubes containing the anticoagulants lepirudin (Refludan; Pharmion, Copenhagen, Denmark) or EDTA, respectively. Blood samples were preincubated for 10 min with Ab, #20 mg/ml anti-human CD14 Abs r18D11, 18D11 F(ab)92 (batch 2068, lot 1383), or isotype controls raNIP and mIgG1 F(ab)92 (lot 1501), or […] anti-porcine CD14 Abs rMil2, Mil2 (lot 1106), or the isotype controls 4770 RECOMBINANT ANTI-CD14 Abs Downloaded from University of Oslo, Library of Medicine and Health Science on Jan. 24, 2014 for IgG2/4 and mIgG2b, eculizumab (Soliris) and mIgG2b (lot 1631), respectively. Endotoxin-free Dulbecco phosphate buffered saline, PBS (Sigma-Aldrich), was used for diluting the Abs. Subsequently, blood samples were incubated for another 15 min in the presence of detection Ab, 10 mg/ml 18D11 (batch 719, lot 3110) or 150 mg/ml FITC-conjugated Mil2 (batch 1107). Their binding was detected either by using a secondary PEconjugated anti-mouse IgG or through direct FITC fluorescence. Erythrocytes were lysed using FACS Lysing solution (BD Biosciences, Franklin Lakes, N.J.; human blood) or a solution of 0.16 M ammonium chloride, 10 mM sodium bicarbonate, 0.12 mM EDTA (Tritiplex III) and 0.04% (v/v) paraformaldehyde (porcine blood). In subsequent flow cytometry analyses, human monocyte and porcine granulocyte populations were selected based on the forward scatter-side scatter dot plot, and CD14 binding was recorded as mean or median fluorescence intensity, respectively. In contrast to humans, porcine CD14 is constitutively expressed on mature granulocytes (32, 33). Fluorescence intensities in the presence of the fluorescently labeled Abs only were set to 100%. Flow cytometry analyses on human samples were performed using an LSRII and FACSDiva software version 5.0.3; porcine samples were analyzed on a FACSCalibur using Cell Quest Pro version 5.2.1 for data acquisition (all from BD Biosciences).

porcine whole blood [1] = assay: rMil2 combined with C5 inhibitor OmCI: cytokine production in porcine whole blood ex vivo; format: cell-based; conditions: E. coli-incubated porcine whole blood
Experimental: (§1) The whole blood model has been described in detail previously (36). Fresh human venous or porcine arterial blood was drawn directly into tubes containing the anticoagulant lepirudin (Pharmion) at a final concentration of 50 mg/ml. In 1.8-ml Cryo Tube vials (Nunc, Roskilde, Denmark), the blood was preincubated with up to 20 mg/ml anti-human CD14 (r18D11 or 18D11), or 50 mg/ml anti-porcine CD14 (rMil2 or Mil2) at 37° C. for 10 min prior to an additional 2-h incubation in the presence of 100 ng/ml ultrapure LPS from Escherichia coli 0111:B4 (InvivoGen, San Diego, Calif.) for human blood or 1 3 105/ml heat-inactivated E. coli (strain LE392, ATCC33572) for porcine blood. As negative controls, PBS with MgCl2 and CaCl2 (Sigma-Aldrich) and isotype controls were used. Adverse effects were tested using nonactivated whole blood samples. After the addition of 10 mM (human) or 20 mM (porcine) EDTA, plasma was gained by 15 min centrifugation at 3220 3 g and 4° C. Levels of TNF, IL-6, and IL-1b in human plasma were determined using Bioplex technology (Bio-Rad Laboratories AB). Levels of TNF, IL-1b, and IL-8 in porcine plasma were determined using ELISA (Quantikine, R&D Systems, Minneapolis, Minn.). Platelet count was quantified by impedance using a CELL-DYN Sapphire hematology analyzer (Abbott Laboratories, Abbott Park, Ill.).
Whole blood was incubated with 1 3 106 E. coli per milliliter for 2 h at 37° C. in the absence or presence of inhibitors and controls. TNF, IL-1b, and IL-8 blood was analyzed as described above.

porcine whole blood [2] = assay: Adverse (IgG-Fc mediated) effects in nonactivated porcine whole blood; format: cell-based; conditions: absence of inflammatory stimuli
Experimental: as §1

E. coli = conditions: whole pig blood; cited from earlier work
[3] = set-up: species or system Norwegian domestic piglets (Sus scrofa domesticus); conditions: in vivo, iv
Experimental: In vivo application of anti-porcine CD14 Abs Norwegian domestic piglets (Sus scrofa domesticus, outbred stock) with a weight of 2.2 kg were isolated at the day of intervention. Anesthesia was induced with 5% sevoflurane in a mixture of air and oxygen until sleep. After establishment of an i.v. line, the piglets received fentanyl (15-20 mg/kg) were tracheotomized in the supine position, and a microcuffed endotracheal tube from Kimberly-Clark (Roswell, GA) with inner diameter of 4 mm was inserted. Maintenance anesthesia was provided with an infusion of fentanyl (50 mg/kg/h, and isoflurane 1-2% in oxygen-enriched air administered from a Leon plus ventilator from Heinen and Loevenstein (Bad Ems, Germany). An artery line was inserted in the right or left carotid artery for blood sampling during the experiments and for continuous measurement of mean artery pressure. The piglets were monitored with electrocardiography and pulse oximetry. Ventilator settings were adjusted to maintain 7.40 pH and oxygen saturation above 96%. Hemodynamic parameters were collected using ICUpilot software, CMA Microdialysis (Stockholm, Sweden) every 30 s. To compensate for hydration needs, the animals received a background infusion of isotonic sodium glucose solution, Salidex (Braun Medical A/S, Vestskogen, Norway) at 10 ml/kg/h. To compare the effect of the Mil2 and the rMil2 on healthy piglets, increasing amounts of a stock solution of 1 mg/ml rMil2 or Mil2 (batch 1106) were injected i.v. into two piglets at indicated times to a maximum dose of 5.36 mg/kg, and arterial blood samples were collected, in tubes containing the anticoagulants EDTA or citrate. To investigate the biological effect of rMIL2 on the inflammatory response, two piglets underwent the E. coli sepsis regimen as described previously (17). One control piglet was gives saline, and one piglet was given a bolus dose of 5 mg/kg rMil2 before infusion of the bacteria.

B1: Mil2: mouse anti-porcine CD14 IgG2b clone Mil2 (Serotec), original murine clone (antibody, V domains shown)
VH: QVRLQQPGAELVRPGASVKLSCKASGYTFTTYWMNWVKQRPEDGLEWIGRIDPYDSETHYNQNFKDKAILTVDKSSSTAYMQLSSLTYEDSAVYYCTRKEGRQWGAYFDYWGQGTTLTVSSA
VL: DIVMTQSQKFMSTSVGDRVSVTCKASQYVGTNVAWYQQKPGQSPKALIQSASYRCSGVPDRFTGSGSGTDFTLTISNVQSEDLADYFCQQYNTYVTFGGGTKLELKR
With B1 the “binding sites blocked (competition with FITC-conjugated Mil2 in binding to CD14)” value (porcine CD14) was about 50%, the “IL-1b release (effect in words)” value (porcine whole blood [1]) was “not significantly reduced” and the “IL-8 release (effect in words)” value (porcine whole blood [1]) was “markedly enhanced the release”. The “TNF release (effect in words)” value (porcine whole blood [1]) was “significantly reduced”, the “spontaneous IL-8 release” value (porcine whole blood [2]; 50 mg/ml) was “strong spontaneous IL-8 release” and the “platelet counts / platelet aggregation” value (porcine whole blood [2]; up to 71.4 mg/ml) was “dose-dependent drop in platelet counts”. The E. coli survival (E. coli) was “does not affect E. coli survival”, the maximum heart rate [3] was about 300 beats/min and the “heart rate (effect in words)” value ([3]; 0.32 mg/kg) was “caused an increase in heart rate”.
